# Reference: publication PMC6971430, “Manipulation of the dually thermoresponsive behavior of peptide‐based vesicles through modification of collagen‐like peptide domains” (Bioengineering & Translational Medicine, 2019)
# Non-standard residues stand in square brackets, D forms with d. No end group written: not given here. *: point of attachment. Butanoyl(4-N3) = [N-]=[N+]=NCCCC(=O)*; Hyp = O=C(O)[C@@H]1C[C@@H](O)CN1; Pra = C#CC[C@H](N)C(=O)O
# B1: N3-(GPO)3GFOGER(GPO)3GG (peptide)
# peptide: {Butanoyl(4-N3)}-GP[Hyp]GP[Hyp]GP[Hyp]GF[Hyp]GERGP[Hyp]GP[Hyp]GP[Hyp]GG
# notes: collagen-like peptide, printed in short form as N3-(GPO)3GFOGER(GPO)3GG and written out here; Forms a homotrimeric triple helix; details are in Supporting Information Section 1.1; also called CLP; source: synthetic peptide (Fmoc solid phase synthesis), purified by RP-HPLC
# B2: (VPGFG)6-(GPO)3GFOGER(GPO)3GG (peptide)
# chain: H-VPGFGVPGFGVPGFGVPGFGVPGFGVPGFG[Pra]GP[Hyp]GP[Hyp]GP[Hyp]GF[Hyp]GERGP[Hyp]GP[Hyp]GP[Hyp]GG
# modifications: triazole (positions not given here); not fully specified (residue 31, bridges); also: no peptide bond between residues 31 and 32, the two parts are joined by azide-alkyne cycloaddition
# notes: elastin-like peptide NH2-(VPGFG)6G', written out here; the last G stands for G' (propargylglycine); collagen-like peptide (GPO)3GFOGER(GPO)3GG as in m2; the printed O (hydroxyproline) is written as P; Two synthetic peptides joined through a triazole, written as one chain; Reaction details are in Supporting Information Section 1.2; also called F6-GFOGER; ELP-CLP conjugate; source: synthetic …
# Tests used:
# [1] = target: the molecule itself; test: circular dichroism spectroscopy; free CLP peptides, 0.35 mM in HPLC grade water (pH 6.5 at 4°C), 0.2 cm cuvette; wavelength scans at 4 and 80°C and melting scans; monomers to triple helix
# [2] = target: the molecule itself; test: circular dichroism spectroscopy; ELP-CLP conjugates, wavelength scans at 0.1 mM and melting scans at 0.35 mM in HPLC grade water (pH 6.5 at 4°C), 0.2 cm cuvette; monomers to triple helix
Protein,stoichiometry N [1],stoichiometry N [2]
B1,3,
B2,,3
